For one assay, the target named is T1, human CysLT1R (Homo sapiens, UniProt Q9Y271).
T1 construct: expressed in transfected cells
T1 sequence (Q9Y271 1-337): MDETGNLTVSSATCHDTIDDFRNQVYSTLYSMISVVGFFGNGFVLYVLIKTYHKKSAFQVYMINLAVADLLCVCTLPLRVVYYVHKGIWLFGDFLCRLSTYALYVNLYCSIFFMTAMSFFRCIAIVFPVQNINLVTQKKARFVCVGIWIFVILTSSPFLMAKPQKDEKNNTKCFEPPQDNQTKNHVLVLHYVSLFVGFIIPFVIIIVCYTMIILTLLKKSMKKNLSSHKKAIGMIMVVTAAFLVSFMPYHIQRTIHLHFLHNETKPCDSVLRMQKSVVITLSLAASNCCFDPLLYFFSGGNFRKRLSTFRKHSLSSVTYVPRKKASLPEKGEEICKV
As to the kind of experiment: ERK activation in CysLT1R CHO transfectants. It is filed as cell-based. On the procedure: (§1) FIG. 1. Activation by recombinant human P2Y12 receptors in response to cys-LTs. The human P2Y12 receptor cDNA was cloned in forward and reverse orientation into the expression vector pEF1/His B and transfected into CHO cells using Fugene HD reagent. Stably-expressing clones were selected using G418 (1000 μg/ml), and expression of the construct was confirmed by cytofluorographic detection of the HIS tag. 1A. […] 1B. SDS-PAGE immunoblots showing phosphorylation of ERK2 by CHO cells stably expressing human P2Y12 receptors in reverse (negative control) or forward orientations. […] The blots were stripped and re-probed with an antibody (Ab) recognizing total ERK1 and ERK2. […] 1C. Effect of the selective P2Y12 receptor antagonist 2-MesAMP (MeS) on ligand-induced ERK phosphorylation. P2Y12 receptor expressing CHO cells were stimulated with the same doses of agonists used in 1A, in the absence or presence of 2-MesAMP (100 μM). 1D. Comparison of P2Y12 receptor-mediated responses to cys-LTs with those of recombinant human CysLT1R and CysLT2R expressed in CHO cells, and the effect of the CysLT1R antagonist MK571 (1 μM).
(§2) A P2Y12 receptor cDNA was amplified by reverse transcriptase polymerase chain reaction (RT-PCR) from RNA extracted from primary hMCs and cloned into a mammalian expression vector. Expression was confirmed by detection of a histidine (HIS) tag by flow cytometry. […]

The target of a further assay is human P2Y12 (Homo sapiens, UniProt Q9H244). As to the kind of experiment: ERK activation (phosphorylation immunoblot) in P2Y12-expressing CHO cells. Set-up: polyhistidine (HIS) tag (C); expressed in transfected cells. As to conditions: 2-MesAMP 100 μM, MK571 1 μM. It is filed as cell-based. On the procedure:
FIG. 1. Activation by recombinant human P2Y12 receptors in response to cys-LTs. The human P2Y12 receptor cDNA was cloned in forward and reverse orientation into the expression vector pEF1/His B and transfected into CHO cells using Fugene HD reagent. Stably-expressing clones were selected using G418 (1000 μg/ml), and expression of the construct was confirmed by cytofluorographic detection of the HIS tag. 1A. […] Results in second experiment were identical. 1B. SDS-PAGE immunoblots showing phosphorylation of ERK2 by CHO cells stably expressing human P2Y12 receptors in reverse (negative control) or forward orientations. […] The blots were stripped and re-probed with an antibody (Ab) recognizing total ERK1 and ERK2. […] 1C. Effect of the selective P2Y12 receptor antagonist 2-MesAMP (MeS) on ligand-induced ERK phosphorylation. P2Y12 receptor expressing CHO cells were stimulated with the same doses of agonists used in 1A, in the absence or presence of 2-MesAMP (100 μM). 1D. Comparison of P2Y12 receptor-mediated responses to cys-LTs with those of recombinant human CysLT1R and CysLT2R expressed in CHO cells, and the effect of the CysLT1R antagonist MK571 (1 μM). Data in 1B-1D are from individual experiments that were repeated at least 3 times with similar results.
FIG. 8. […] Cells were stably transfected with the human P2Y12 construct and stimulated for 15 minutes with the indicated ligand concentrations. […] Results in a second experiment were similar.
A P2Y12 receptor cDNA was amplified by reverse transcriptase polymerase chain reaction (RT-PCR) from RNA extracted from primary hMCs and cloned into a mammalian expression vector. Expression was confirmed by detection of a histidine (HIS) tag by flow cytometry. Another cohort of CHO cells were stably transfected with a P2Y12 receptor construct in reverse orientation as a negative control. […] The cys-LT-induced ERK activation blocked by pre-treatment of the cells with pertussis toxin (PTX), was attenuated by treatment with the P2Y12 receptor-selective antagonist 2-methylthioadenosine monophosphate (2-MesAMP) (FIG. 1C), and was resistant to MK571, an inhibitor that blocks CysLT1R and some P2Y receptors (Mamedova, L., et al. 2005. Biochem. Pharmacol. 71:115-125). […] These responses were resistant to PTX and 2-MesAMP, and susceptible to MK571 in the case of the CysLT1R transfectants.
A human P2Y12 receptor cDNA was amplified by 30 cycles of PCR from reverse-transcribed total RNA extracted from primary cord blood hMCs. The primer sequences were 5′-[…] (SEQ ID NO: 1) and 3′-[…] (SEQ ID NO: 2). The fragment was cloned into a TA vector (INVITROGEN™). After verifying the nucleotide sequence, the fragment was subcloned into the multiple cloning site of the expression vector pEF1/His B, encoding a C-terminal polyhistidine (HIS) tag. […]

Another assay has as its target T2, human CysLT2R (Homo sapiens, UniProt Q9NS75).
T2 construct: expressed in transfected cells
T2 sequence (Q9NS75 1-346): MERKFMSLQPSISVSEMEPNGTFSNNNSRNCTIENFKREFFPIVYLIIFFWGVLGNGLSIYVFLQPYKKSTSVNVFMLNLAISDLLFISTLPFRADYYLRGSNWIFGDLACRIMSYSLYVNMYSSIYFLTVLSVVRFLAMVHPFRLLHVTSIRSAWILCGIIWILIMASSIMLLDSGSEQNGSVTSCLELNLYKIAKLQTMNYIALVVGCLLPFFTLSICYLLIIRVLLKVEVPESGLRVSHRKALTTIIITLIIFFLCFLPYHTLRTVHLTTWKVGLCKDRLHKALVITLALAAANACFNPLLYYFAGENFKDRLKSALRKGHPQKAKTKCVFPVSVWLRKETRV
As to the kind of experiment: ERK activation in CysLT2R CHO transfectants. Type of assay: cell-based. On the procedure: as §1, §2

Assay [1] concerns LAD2 cells. As to the kind of experiment: ERK activation in LAD2 cells with apyrase. Type of assay: cell-based, human. To be noted: LTE4 500 nM, 15 minutes. On the procedure:
(§3) FIG. 9. Effect of apyrase treatment on LT-mediated activation of LAD2 cells. 9A. […] Concentrations of MIP-1β were measured by ELISA. 9B. […] Lysates were resolved by SDS-PAGE and probed with the indicated antibodies against phospho- and total ERK. Results in 9A are the mean±½ range from two experiments, while 9B is representative of two experiments.
(§4) Pre-treatment of the LAD2 cells with 2-MesAMP blocked the LTE4-mediated increment in MIP-1β production by >50% (FIG. 2B). […] To exclude potential off-target effects of the inhibitors, samples of LAD2 cells were transfected with lentiviruses encoding a P2Y12 sequence-specific shRNA, a CysLT1R-specific shRNA, or an empty vector control before stimulation. […] LTE4- and LTD4-dependent production of PGD2 were abrogated by the knockdowns of P2Y12 and CysLT1R, respectively (FIG. 2C, bottom). Neither GPCR knockdown altered MIP-1β generation or PGD2 production in response to IgE-anti-IgE (FIG. 2C). LTE4-mediated MIP-1β generation (FIG. 9A) and ERK activation (FIG. 9B) were not altered by treatment of LAD2 cells with apyrase to degrade extracellular ADP.
After stimulation with the respective agonists, LAD2 cells and hMCs (0.5×10^6) were lysed with lysis buffer (BD Bioscience) supplemented with protease inhibitor cocktail (Roche) and sodium vanadate (1 mM). Lysates were subjected to 4-12% SDS-PAGE and transferred to PVDF membranes. […]

The test system of assay [2] is LAD2 cells. As to the kind of experiment: MIP-1β generation by LAD2 cells (ELISA). To be noted: apyrase 10 μM, LTE4 500 nM, 6 h. Type of assay: cell-based, human. On the procedure:
FIG. 2. Requirement for P2Y12 receptors in LTE4-mediated LAD2 cell activation. 2A. Calcium flux of LAD2 cells stimulated with the indicated agonists (500 nM) in the presence or absence of the P2Y12 receptor-selective antagonist 2-MeSAMP (100 μM). […] 2B. […] Cells sensitized overnight with IgE and challenged with anti-IgE were used as the positive control. 2C. […] Results in 2B and 2C are mean±SEM from three independent experiments each. 2D. Effect of shRNA-mediated knockdown of P2Y12 receptor mRNA expression by LAD2 cells.
as §3, §4
The concentration of MIP-1β was measured by an ELISA (ENDOGEN®). PGD2 was quantitated by a PGD2-methoxylamine hydrochloride (PGD2-MOX) assay.

Sequence of human P2Y12 (Q9H244 whole entry): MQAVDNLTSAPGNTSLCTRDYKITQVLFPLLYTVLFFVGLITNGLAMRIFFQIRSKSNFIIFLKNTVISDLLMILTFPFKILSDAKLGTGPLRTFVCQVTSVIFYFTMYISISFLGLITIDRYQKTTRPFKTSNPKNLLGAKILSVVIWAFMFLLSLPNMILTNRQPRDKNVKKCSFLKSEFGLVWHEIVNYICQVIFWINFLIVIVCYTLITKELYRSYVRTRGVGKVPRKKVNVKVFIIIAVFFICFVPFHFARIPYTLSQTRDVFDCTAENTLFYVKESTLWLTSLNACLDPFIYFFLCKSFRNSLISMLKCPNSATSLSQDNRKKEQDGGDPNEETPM

Turning to pertussis toxin, the “effect on cys-LT-induced ERK activation” value with human CysLT1R is on record as “resistant”; with human P2Y12, “blocked”; with human CysLT2R, “resistant”.
For apyrase, the “effect on LTE4-mediated ERK activation” value in the assay with LAD2 cells [1] is on record as “not altered”. The “effect on LTE4-mediated MIP-1β generation” value in the assay with LAD2 cells [2] was “not altered”.
